We go through 2 molecules from CN116472284A.

Assay [1] has as its target SARS-CoV-2 spike ectodomain, prefusion-stabilised trimer (刺突 S2P) (SARS-CoV-2). The assay can be described thus: SPR, captured spike S2P.
Assay [2] shares this target. Description: SPR, captured spike S2P, biphasic dissociation, fast phase kd1. On the technique in general: Surface plasmon resonance follows binding to a sensor surface in real time, without labels.
The target is the same in assay [3]. The assay can be described thus: SPR, captured spike S2P, biphasic dissociation, slow phase kd2.
The target is the same in assay [4]. Description: binding kinetics (SPR), Fig. 6A.
The target is the same in assay [5].
Assay [6] has the same target. This is another data set of the same source.

B1: Nb6-bi (bivalent Nb6 with a 15 amino acid linker) (VHH)
chain: QVQLVESGGGLVQAGGSLRLSCAASGIIFGRNAMGWYRQAPGKERELVAGITRRGSITYYADSVKGRFTISRDNAKNTVYLQMNSLKPEDTAVYYCAADPASPAPGDYWGQGTQVTVSSGGGGSGGGGSGGGGSQVQLVESGGGLVQAGGSLRLSCAASGIIFGRNAMGWYRQAPGKERELVAGITRRGSITYYADSVKGRFTISRDNAKNTVYLQMNSLKPEDTAVYYCAADPASPAPGDYWGQGTQVTVSS
As usually defined, the koff is a measure of how fast the partners let go of each other. High values mean fast dissociation, low ones slow dissociation. On to B1, for which, in assay [1], the fold gain in KD against monovalent Nb6 worked out at 750 fold. Moreover, the koff is 0.027 s⁻¹ in assay [2] and 0.00031 s⁻¹ in assay [3].

B2: Nb6 (VHH)
VHH: QVQLVESGGGLVQAGGSLRLSCAASGIIFGRNAMGWYRQAPGKERELVAGITRRGSITYYADSVKGRFTISRDNAKNTVYLQMNSLKPEDTAVYYCAADPASPAPGDYWGQGTQVTVSS
For orientation: Kd means a measure of binding affinity in units of concentration. Read a high Kd as weaker binding. The EC50 is the concentration at which the effect is half-maximal. Read a high EC50 as weaker potency. What is called IC50 is the point on the concentration scale where inhibition reaches its midpoint. Read a low IC50 as greater potency. In assay [1], B2 showed a Kd of 210 nM and a koff of 0.056 s⁻¹. In addition, the Kd in assay [4] was 210 nM. In addition, the EC50 in assay [5] was 359 nM. This molecule had an IC50 in assay [6] of 370 nM.
